Results on 1 molecule are retold here after publication PMC7512442.

For the data set, the target named is T1, RBM22 (pre-mRNA-splicing factor RBM22) (Homo sapiens, UniProt Q9NW64 1-420).
T1 sequence: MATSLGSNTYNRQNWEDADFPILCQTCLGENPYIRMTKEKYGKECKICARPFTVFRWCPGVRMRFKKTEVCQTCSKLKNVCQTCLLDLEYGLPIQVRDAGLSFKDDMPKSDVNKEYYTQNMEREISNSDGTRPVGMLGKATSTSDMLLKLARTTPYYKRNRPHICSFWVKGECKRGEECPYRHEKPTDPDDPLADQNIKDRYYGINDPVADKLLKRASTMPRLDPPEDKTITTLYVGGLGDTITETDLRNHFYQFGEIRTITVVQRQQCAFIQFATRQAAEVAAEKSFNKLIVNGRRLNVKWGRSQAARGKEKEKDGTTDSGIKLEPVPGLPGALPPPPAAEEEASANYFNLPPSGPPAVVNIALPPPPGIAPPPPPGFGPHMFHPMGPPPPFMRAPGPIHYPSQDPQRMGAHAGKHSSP
As to the kind of experiment: EMSA.

Turning to GGGGAUCCACAUGGUUCUUGCCUUUU (ssRNA) [human U5 snRNA fragment (nonspecific control)], the binding result is listed as “no binding”.
